Measurements from PMC9197527, “An anti-ACVR1 antibody exacerbates heterotopic ossification by fibro-adipogenic progenitors in fibrodysplasia ossificans progressiva mice” (The Journal of Clinical Investigation, 2022).

Key:
[1] = target: T1, ACVR1 (as used for surface plasmon resonance) (Homo sapiens (assumed), UniProt Q04771); assay: SPR; BIAcore; which partner was immobilised, and the conditions, are not told in the text shown; conditions: both partners purified
T1 construct: ACVR1 (ALK2), BMP type I receptor; For other steps (serum ELISA, panning, BLI) the methods name recombinant human ACVR1 extracellular domain proteins (Creative Biomart ACVR1-01H; Sino Biologicals 10227-H03B; R&D Systems 637-AR), but none is named for the BIAcore measurement; It was probably an extracellular domain construct; also called ALK2; BMP type I receptor ACVR1
T1 sequence (Q04771 21-509): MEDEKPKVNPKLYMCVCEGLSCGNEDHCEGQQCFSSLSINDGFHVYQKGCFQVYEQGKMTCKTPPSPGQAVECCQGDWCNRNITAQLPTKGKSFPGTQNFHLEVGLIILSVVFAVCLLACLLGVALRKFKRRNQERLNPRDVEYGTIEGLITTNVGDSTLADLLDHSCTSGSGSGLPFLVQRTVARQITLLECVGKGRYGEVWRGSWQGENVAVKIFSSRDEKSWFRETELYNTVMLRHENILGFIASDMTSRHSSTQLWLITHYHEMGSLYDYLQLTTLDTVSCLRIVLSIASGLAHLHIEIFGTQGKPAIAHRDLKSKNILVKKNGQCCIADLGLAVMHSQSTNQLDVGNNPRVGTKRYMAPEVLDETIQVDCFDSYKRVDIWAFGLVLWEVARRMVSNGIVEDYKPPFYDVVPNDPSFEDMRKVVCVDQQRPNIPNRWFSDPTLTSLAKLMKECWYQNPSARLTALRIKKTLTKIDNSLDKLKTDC

ALK3 on C2C12 cells = target: T2, ALK3 on C2C12 cells (Mus musculus (C2C12, endogenous), UniProt P36895); assay: flow cytometry on cells; JAB0505 on parental (wild-type ACVR1-expressing) and ACVR1-KO C2C12 cells; conditions: one partner purified
T2 construct: ALK3 (BMPR1A), mouse, endogenous on the surface of C2C12 cells; also called Bmpr1a; source: endogenous, on mouse C2C12 myoblast cells (ACVR1-KO clone)
T2 sequence (P36895 24-532): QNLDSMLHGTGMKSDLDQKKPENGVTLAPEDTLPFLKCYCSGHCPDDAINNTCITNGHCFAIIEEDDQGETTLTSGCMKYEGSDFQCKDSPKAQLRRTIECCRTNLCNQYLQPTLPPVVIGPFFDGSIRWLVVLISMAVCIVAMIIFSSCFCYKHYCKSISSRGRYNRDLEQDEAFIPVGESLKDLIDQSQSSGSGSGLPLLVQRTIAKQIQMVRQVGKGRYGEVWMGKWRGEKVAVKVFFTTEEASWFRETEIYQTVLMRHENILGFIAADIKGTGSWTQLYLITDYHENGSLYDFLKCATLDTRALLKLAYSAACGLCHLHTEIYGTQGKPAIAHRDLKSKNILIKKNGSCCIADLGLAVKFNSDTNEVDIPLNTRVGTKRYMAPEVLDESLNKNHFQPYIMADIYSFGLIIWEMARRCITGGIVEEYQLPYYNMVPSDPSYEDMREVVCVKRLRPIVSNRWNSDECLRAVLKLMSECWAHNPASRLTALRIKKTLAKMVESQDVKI

[2] = target: T3, ACVR1 on parental C2C12 cells (Mus musculus (C2C12, endogenous), UniProt P37172); assay: as above; conditions: one partner purified
T3 construct: ACVR1 (ALK2), mouse, endogenous on the surface of C2C12 cells; also called ALK2; wild-type ACVR1; source: endogenous, on mouse C2C12 myoblast cells
T3 sequence (P37172 21-509): as the sequence (Q04771 21-509) above, with M1V, P10Q, L121I, D162E, P310S counted along it

- Kd [1]: ~25 nM
- binding result (ALK3 on C2C12 cells): no binding
- binding result [2]: binds
B1: anti-ACVR1 monoclonal antibody JAB0505 (antibody, V domains shown)
VH: EVQLQQSGAELVRPGASVRLSCTASGFNIKDSLMHWVKQRPEQGLEWIGWIDPEDGETRYAPNFQDKATITAVTSSNTAYLQLSSLTSEDSAIYYCARYTSRYYTMDYWGQGTSVTVSS
VL: DIQMTQSPASQSASLGESVTFTCLASQTIGTWLAWYQQKPGKSPQLLIYAATSLADGVPSRFSGSGSGTKFSFKISSLQAEDFASYYCQQLYWTPWTFGGGTKLEIK
notes: also called anti-ACVR1 mAb; mAb JAB0505; source: HEK293 cells, purified by protein A chromatography; copies: 2 + 2
